Results as given in article PMC3681763 (2013).

B1: (VC1)RAGE-GFP (domain or fragment)
chain: AQNITARIGEPLVLKCKGAPKKPPQRLEWKLNTGRTEAWKVLSPQGGGPWDSVARVLPNGSLFLPAVGIQDEGIFRCQAMNRNGKETKSNYRVRVYQIPGKPEIVDSASELTAGVPNKVGTCVSEGSYPAGTLSWHLDGKPLVPNEKGVSVKEQTRRHPETGLFTLQSELMVTPARGGDPRPTFSCSFSPGLPRHRALRTAPIQPRVWEPVPLEEVQLVVEPEG
B2: (C2)RAGE-GFP (domain or fragment)
chain: EPVPLEEVQLVVEPEGGAVAPGGTVTLTCEVPAQPSPQIHWMKDGVPLPLPPSPVLILPEIGPQDQGTYSCVATHSSHGPQESRAVSISIIEPGEEGPTAGSVGGS
B3: Peptide aptamer PA #103 (anti-C2 domain), purified, in the D26A, K57E Thioredoxin scaffold (designed binder)
chain: SDKIIHLTDDSFDTDVLKADGAILVAFWAEWIQLRVRMKLVKMIAPILDEIADEYQGKLTVAELNIDQNPGTAPKYGIRGIPTLLLFKNGEVAATKVGALSKGQLKEFLDANLA

How the values were obtained:
Test in all cases: ELISA
Apt#48 = biological target: Apt#48
Apt#31 = biological target: Apt#31
[1] = biological target: Peptide aptamer PA #44 (anti-V domain), purified, in the D26A, K57E Thioredoxin scaffold (E. coli, UniProt P0AA25 = thioredoxin)
[2] = biological target: Peptide aptamer PA #27 (anti-C1 domain), purified, in the D26A, K57E Thioredoxin scaffold (E. coli, UniProt P0AA25 = thioredoxin)
[3] = biological target: Peptide aptamer PA #71 (anti-C2 domain), purified, in the D26A, K57E Thioredoxin scaffold (E. coli, UniProt P0AA25 = thioredoxin)
(C2)RAGE-GFP = biological target: B2

Binder: B1
Kd (Apt#48): 152 nM | Kd (Apt#31): 42 nM | Kd [1]: 164 nM | Kd [2]: 32 nM

Binder: B2
Kd [3]: 14500 nM

Binder: B3
Kd ((C2)RAGE-GFP): 1340 nM
